# From the DeepSol protein solubility set
# Test: soluble on expression in E. coli; label from the status in PepcDB or PDB records
row,Sequence,soluble on expression in E. coli
1,MGSDKIHHHHHHMTQNTPLFSMESVSVRHNSVPALDAVSWTLHRGAHCAVLGGNGAGKSTLLRLAAGAIRPDQHDGGTVLWFPRGSAEDSPIAVRTHCGLVSAEQQEHYLRRSWRITGEEIVLSGYFGTDMLYRPAGTAQRHAAARLAKALDAEHLMPVMLEAMSQGQLRKILLARAMVHSPQLLLLDEVCEGLDAAARREMLAAIDRAAALGTTVLMSGHRAGQFPDCIRQAVLLRQGRLVFTGGLHQALHLMRTTHQPLPAGASDTAAGQCSCCTPPPACAGAAPVVEIEHADVYLGRTPVLHDITWSILPGQNWVVRGPNGAGKSTLLRLLYGDQRQAWGGIVRWFGMAGPVPLEEVRRNVALVSDRVQALYGHDGYHSTRLELNGEELVHTGFYDSTGLWGKTPDAQQHAAALRWMDRLGIAALAGTDIRRMSYGTLRRFMLARALVRDPQLLILDEPLSGLDESARRIMLTTLSALMRSGRQLVLVTHHQEDIQPETTHELHLNAGRITYCGPVCPAGDTL,not soluble
2,MAPKTIFITGANRGIGLGLVRELLKVPGVEALVAGARNIDGAKELQSLAKADARLHLIAVDVSNDGSLENSVKSVSGIVGDRGLNLLINNAGLIESYGTTSAPNRASVLHCIDVNAVSALLASQHFLPLLQKAASHVSGDSLTPDRAAIVNIGSDCASQALNLRGSGPSNSLLAYKMSKVAMLSFSRSMAADFKRLEIPVLITNIHPGWVQTDMGGSNAEISVDESVTKIVASIAKLNGGHQGGLFNRELEEMPL,not soluble
3,GMATEKYHEILKKYFLSFETGDFSQVQFSCNLEFLSPISGNTLKGTEEVIPFLKGVTTRVAEVNIMSTTVEYPRASGVWQMRTTKGTLYTLHNFFRLDEEGIVYVWPMFDPKAVMENPDALIQWLTGKDY,soluble
4,MGSDKIHHHHHHNKNTLPDSNGTLVPVGSWYLGLSVGVGALKNPLRGQDNIPLYVLPEFRYYGERFSVENLDVSFTLYDAPAYSLELVGQQNMDGLLFPGDNRRLMASFTGMIPIRSRDVVETAVELPPLYPEHKSMSYMAGVAARYFGWFDAQVLALTDVSKVHHGYEINLSLGKQYNWKNINFEAQFGATYKSSKLTEYYYNGEYQELFYQVYNYRADSAINPYIQLSAAYDLGNNYFVSGNVRNIWLDDTIHHSPIFEDTHLLTYFIGIKKLF,not soluble
5,MGSDKIHHHHHHMSRESALSRASRYFEAGDFQSDLAHLVTYRSESQNTAPEARMECRRYLEEAMLPRLRALGFDCEIIDNPDPTGGPLLIGERREGEALPTILTYGHGDAVLGQEGRWREGLEPWVLVEEGDRLYGRGTADNKGQHLINIAALEAVLAERGHLGFNTRIVIEMSEEVGSVGLPDVFRAYKDRLTADVLIASDGPRLQPDVPTMFMGSRGGTTFDLVVETHEGAHHSGNWGGLLSDPAMILAHALACITDVRGQIKVPEWRPDSLTENVRMALRDLPVAGGQGPAVNPDWGEEDLTPAERVFGWNSFTVLAMVSGVPEAPVNAISGWARATCQLRYVVGTDPEDVVPALRRHLDAHGFESVEIRCHERGFFAATRLDPDHPWAQFVGESIRRTSGALHVLPNLAGSLPNDSFTDILEVPTIWVPHSYRGCSQHAPNEHVLKSVYHDALRVMAGVFWDLGEQGGPLA,not soluble
6,GMHFSKEHINALETRTRAHFINSLSGFKSANLIGTQDRQGNTNLSIVSSVIHLGANPPLMGMIIRPHSVPRHTFENIMQTGLYTINHVNQSIYEQAHQTSARYDKDESEFEATGLTPEYLSDFCAPFVKESRLKYSVKLVEHQHLAINGTEFVIGEIVDVYVDDNAVQTDGFIDLQAIDTVAISGLDCYYTGDKLARLPYAKK,soluble
7,MAHHHHHHMGFFKKNKRQSFNRNYEGEVQCNNIILGGTFYKHCENDLLLKNELENLVPYFNGRIFLENKEEIGKVDEILGPINEFYFSVKLKEGIRAKSFSSDTHFFIDKSQTLPLSRFLPQEKNSQSLVKKKKKKSNRDKKKNSFNQNNKKPNNYNFKGNNNRNDHNNRNDHNNRNDHNNRNDHNNRNDRNNRNNKNSFRNRSNSSRKFNNQRGRF,not soluble
8,MKGEIEGITDDGIGVRVIDKNGFEHKIEMLFDGEIVYHHQKGYPDNPKERTNEEDESVAQARRFARYHVYREKGYDTVPNPDNPDRIAAVLLALIGLDDQQFDQYFGMLYEQMASHERADVAPVLDLPQEVYSEEFIVYKQNVYLEESLDAMQDQLTQPATEVFGEENLQEFLQETGDGLVAKARSLVGGGTDEDEDASEEPSIPEADLSIADVSGLDTMYSTPEGYKTIEGEDPVSREPDARIETLPMGYTREQFRYHVGHNLICQIRDCFISMGVEPPAQYRLLGHGKFKYSAKYRDFDFYPDYWDYEANIPGYSSPV,not soluble
